Here are results for one substance from patent publication US20090029376.

Common to all, as to experiment: cleavage_in_vitro
For data set [1], the system named is T1, SapI (Saccharopolyspora sp.).
T1 sequence: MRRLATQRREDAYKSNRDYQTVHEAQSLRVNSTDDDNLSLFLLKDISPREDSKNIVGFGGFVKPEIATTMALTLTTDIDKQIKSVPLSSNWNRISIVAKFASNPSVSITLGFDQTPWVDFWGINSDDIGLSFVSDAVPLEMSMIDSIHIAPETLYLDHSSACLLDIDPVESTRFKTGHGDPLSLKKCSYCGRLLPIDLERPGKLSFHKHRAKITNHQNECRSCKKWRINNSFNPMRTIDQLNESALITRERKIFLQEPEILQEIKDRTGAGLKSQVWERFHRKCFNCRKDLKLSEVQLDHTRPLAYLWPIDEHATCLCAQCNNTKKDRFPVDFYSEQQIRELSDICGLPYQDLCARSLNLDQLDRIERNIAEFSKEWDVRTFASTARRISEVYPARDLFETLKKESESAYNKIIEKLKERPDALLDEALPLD
To be noted: NEB4, 37 C.

Data set [2] concerns the target EcoRI-HF K62E (Escherichia coli RY13) (UniProt P00642). To be noted: NEB4, 37 C.
In data set [3] the test system is T2, BsmBI-HF N185Y/R232A (Bacillus stearothermophilus).
T2 sequence: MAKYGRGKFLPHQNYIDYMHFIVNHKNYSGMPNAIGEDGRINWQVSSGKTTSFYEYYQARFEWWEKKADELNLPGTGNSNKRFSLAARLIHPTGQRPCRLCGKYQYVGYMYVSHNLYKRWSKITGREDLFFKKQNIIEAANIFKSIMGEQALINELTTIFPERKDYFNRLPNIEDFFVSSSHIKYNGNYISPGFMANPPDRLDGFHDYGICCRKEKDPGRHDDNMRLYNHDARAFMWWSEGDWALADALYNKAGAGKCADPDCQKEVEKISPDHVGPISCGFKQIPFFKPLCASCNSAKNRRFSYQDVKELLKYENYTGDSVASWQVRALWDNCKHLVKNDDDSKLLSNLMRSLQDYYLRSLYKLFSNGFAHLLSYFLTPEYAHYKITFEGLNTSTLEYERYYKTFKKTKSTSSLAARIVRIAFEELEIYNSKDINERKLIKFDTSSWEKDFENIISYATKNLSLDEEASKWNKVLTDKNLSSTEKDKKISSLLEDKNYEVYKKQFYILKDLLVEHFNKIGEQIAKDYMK
Particulars: NEB4, 55 C.

Data set [4] addresses T3, ScaI-HF H193A/S201F (Streptomyces caespitosus) (UniProt O52691).
T3 sequence: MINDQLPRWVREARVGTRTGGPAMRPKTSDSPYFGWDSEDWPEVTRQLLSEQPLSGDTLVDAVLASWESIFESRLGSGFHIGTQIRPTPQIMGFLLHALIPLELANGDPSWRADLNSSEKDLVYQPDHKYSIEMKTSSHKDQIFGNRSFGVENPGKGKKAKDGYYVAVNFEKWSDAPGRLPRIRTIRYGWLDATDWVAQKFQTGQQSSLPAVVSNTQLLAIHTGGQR
Particulars: NEB2, 37 C.

For data set [5], the system named is T4, NcoI (Nocardia corallina).
T4 sequence: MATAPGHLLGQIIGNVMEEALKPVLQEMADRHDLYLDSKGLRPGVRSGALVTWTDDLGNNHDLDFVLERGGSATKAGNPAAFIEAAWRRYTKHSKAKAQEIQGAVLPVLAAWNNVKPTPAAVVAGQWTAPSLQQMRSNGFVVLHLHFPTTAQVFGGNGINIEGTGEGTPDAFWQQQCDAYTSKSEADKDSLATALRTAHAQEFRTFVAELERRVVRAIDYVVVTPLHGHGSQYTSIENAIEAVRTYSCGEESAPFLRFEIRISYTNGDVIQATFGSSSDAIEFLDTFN
Particulars: NEB4, 37 C.

In data set [6] the test system is T5, BstXI (Bacillus stearothermophilus).
T5 sequence: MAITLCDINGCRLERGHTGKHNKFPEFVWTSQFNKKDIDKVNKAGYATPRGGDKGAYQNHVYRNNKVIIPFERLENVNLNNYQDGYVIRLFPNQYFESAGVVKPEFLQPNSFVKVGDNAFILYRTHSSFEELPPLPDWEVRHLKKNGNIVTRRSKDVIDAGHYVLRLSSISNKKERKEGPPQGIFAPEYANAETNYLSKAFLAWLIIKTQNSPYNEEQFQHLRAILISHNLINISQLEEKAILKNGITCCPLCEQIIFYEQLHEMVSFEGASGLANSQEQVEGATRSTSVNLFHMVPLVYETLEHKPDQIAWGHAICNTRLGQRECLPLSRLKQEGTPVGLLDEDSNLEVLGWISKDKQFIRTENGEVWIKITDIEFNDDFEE
Particulars: NEB4, 55 C; Table 2 prints 4.

Data set [7] deals with T6, BstXI-HF N65A (Bacillus stearothermophilus).
T6 sequence: T5 sequence with N65A
To be noted: NEB4, 55 C.

In data set [8] the target is T7, BamHI-HF E163A/E167T (Bacillus amyloliquefaciens) (UniProt P23940).
T7 sequence: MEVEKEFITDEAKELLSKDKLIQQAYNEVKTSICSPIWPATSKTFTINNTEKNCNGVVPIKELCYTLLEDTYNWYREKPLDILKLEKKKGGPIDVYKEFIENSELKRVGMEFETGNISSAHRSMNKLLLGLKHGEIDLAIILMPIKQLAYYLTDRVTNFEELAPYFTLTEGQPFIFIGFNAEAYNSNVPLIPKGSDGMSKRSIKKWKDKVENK
Particulars: NEB4, 37 C.

Data set [9] deals with T8, BamHI(E86P) E86P (Bacillus amyloliquefaciens) (UniProt P23940).
T8 sequence: T7 sequence with E86P, A163E, T167E
To be noted: NEB4, 37 C.

Numbering of substitutions follows the chain as printed.

lambda phage DNA: the activity (fidelity index) is 16 in data set [1]; 16000 in data set [2]; greater than 500 in [3]; 120 in data set [4]; 32 in data set [5]; 32 in [6]. The activity (fidelity index) was greater than 250 in [7], greater than 4000 in [8] and greater than 4000 in [9].
